Experiments:
Conditions in all cases: tags: Sigma Aldrich, from bovine pancreas; label: fluorescein on 5'-terminal dT; intramolecular antiparallel G4
trypsin [1] = biological target: T1, trypsin (Bos taurus, UniProt P00760 P00760:24-246); assay: FP; 25 mM KCl, 200 mM NaCl, 25 mM Hepes pH 7.4, 25 C; iodophenylthiourea arm only
Method: (§1) The preformed quadruplexes were then incubated with increasing concentrations of trypsin at 25° C. (25 mM KCl, 200 mM NaCl, 25 mM Hepes, pH 7.4) for 30 min. Preliminary fluorescence anisotropy studies were conducted to ascertain that equilibrium was reached after 30 min and that there was no significant quenching of the fluorescein emission. The anisotropy associated with the fluorescein emission was followed at 525 nm (excitation at 495 nm). The resultant binding isotherms (FIG. 14) were fitted using non-linear regression to a 1:1 binding stoichiometry. […] This dissociation constant is attributed to non-specific interactions between bovine trypsin and ODN 4, since trypsin (pI=10.5) is positively charged at pH=7.4 and thus can potentially associate with the negatively charged DNA backbone. Support for such non-specific interactions comes from incubation of trypsin with ODN 4 where the concentration of salts were decreased to only 5 mM KCl, 25 mM Hepes, pH 7.4 (see, e.g., FIG. 23).
(§2) Immediately prior to each fluorescence polarization experiment, fresh stock solutions of trypsin were made in Hepes buffer (20 mM KCl, 200 mM NaCl, 25 mM Hepes, pH 7.4). Concentration of the trypsin in the stock solutions were determined using ultra-violet absorbance at 280 nm (ε=37669 M⁻¹cm⁻¹).

trypsin [2] = biological target: T1, trypsin; assay: FP; low salt: 5 mM KCl, 25 mM Hepes pH 7.4; +/-0.3e-6
Method: The results of FIG. 23 show fluorescence anisotropy titrations of AC 1 and negative control ODN 4 (2 nM), first exposed to quadruplex forming conditions followed by incubation with increasing concentrations of trypsin. These experiments were conducted under low-salt conditions (5 mM KCl, 25 mM Hepes, pH 7.4. The raw data is depicted by circles for AC 1 and diamonds (♦) for ODN 4. The lines represent non-linear fits to equation 2 (R²=0.99 for AC 1 and 0.98 for ODN 4).
These findings are consistent with the fact that bovine trypsin is positively charged at pH=7.4 (pI of bovine trypsin is=10.5) and thus can potentially associate with the negatively charged ODN backbone, through non-specific interactions, under low-salt conditions.

trypsin [3] = biological target: T1, trypsin; assay: FP; preformed quadruplex, 25 mM KCl (20 mM elsewhere), 200 mM NaCl, 25 mM Hepes pH 7.4, 25 C; binding through small-molecule arms
Method: as §1, §2

trypsin [4] = biological target: T1, trypsin; assay: FP; 25 mM KCl, 200 mM NaCl, 25 mM Hepes pH 7.4, 25 C; benzamidine arm only
Method: as §1, §2

T1 sequence (P00760 24-246, one chain of several): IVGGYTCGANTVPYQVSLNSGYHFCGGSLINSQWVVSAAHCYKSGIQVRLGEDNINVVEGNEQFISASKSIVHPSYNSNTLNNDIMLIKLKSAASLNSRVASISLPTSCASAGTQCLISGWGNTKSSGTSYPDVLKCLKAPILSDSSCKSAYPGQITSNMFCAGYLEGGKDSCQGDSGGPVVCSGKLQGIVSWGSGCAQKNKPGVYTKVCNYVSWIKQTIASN

B1: ODN 3 (Formula 5) (structured_DNA)
DNA: TTGGTTGGTGTGGTTGGT
modifications: 3'-iodophenylthiourea arm via C6 spacer, no 5' arm
Q: Which Kd (trypsin [1]) does the source give for B1 here?
A: Its Kd is 90 µM.

B2: AC 1 (ODN 1, Formula 3) (structured_DNA)
DNA: TTGGTTGGTGTGGTTGGT
modifications: 5'-benzamidine arm via C10 spacer, 3'-iodophenylthiourea arm via C6 spacer
Q: Which Kd (trypsin [2]) does the source give for B2 here?
A: The Kd was 2.8 µM.

Q: What about the Kd (trypsin [3]) of the same binder?
A: The Kd was 0.81 µM.

B3: ODN 2 (Formula 4) (structured_DNA)
DNA: TTGGTTGGTGTGGTTGGT
modifications: 5'-benzamidine arm via C10 spacer, no 3' arm
Q: For B3, which Kd (trypsin [4]) is on record?
A: The Kd was 29 µM.

— US20110190483, “Stimulus-Responsive Apta Chelamers” (The Administrators of the Tulane Educational Fund, published 2011)
